Results reported in patent US8969060B2, “Modified glucose dehydrogenase” (Ikeda Food Research Co., Ltd., priority 2011, dated 2015).

B1: F432L: modified GLD: SEQ ID NO: 1 with substitution F432L (protein, listed as Aspergillus terreus)
chain: MLGKLSFLSALSLAVAAPLSNSTSAKYDYIVIGGGTSGLAVANRLSEDPNVNVLILEAGGSVWNNPNVTNVDGYGLAFGSDIDWQYQSVNQPYGGNLSQVLRAGKALGGTSTINGMAYTRAEDVQIDAWETIGNTGWTWKNLFPYYRKSENFTVPTKSQTSLGASYEAGAHGHEGPLDVAFTQIESNNLTTYLNRTFQGMGLPWTEDVNGGKMRGFNLYPSTVNLEEYVREDAARAYYWPYKSRPNLHVLLNTFANRIVWDGEAHDGHITASGVEITSRNGTVRVINAEKEVIVSAGALKSPAILELSGIGNPSVLDKHNIPVKVNLPTVGENLQDQVNSHMDASGNTSISGTKAVSYPDVYDVFGDEAESVAKQIRANLKQYAADTAKANGNIMKAADLERLFEVQYDLIFKGRVPIAEVLNYPGSATSVLAEFWALLPFARGSVHIGSSNPAEFPVINPNYFMLDWDAKSYVAVAKYIRRSFESYPLSSIVKESTPGYDVIPRNASEQSWKEWVFDKNYRSNFHPVGTAAMMPREIGGVVDERLNVYGTTNVRVVDASVLPFQVCGHLVSTLYAVAERAADLIKADAGRR
modifications: SIGNAL (1)..(19)
B2: Wild-type: wild-type FAD-conjugated glucose dehydrogenase (GLD) of Aspergillus terreus FERM BP-08578, SEQ ID NO: 1 (protein, listed as Aspergillus terreus)
chain: MLGKLSFLSALSLAVAAPLSNSTSAKYDYIVIGGGTSGLAVANRLSEDPNVNVLILEAGGSVWNNPNVTNVDGYGLAFGSDIDWQYQSVNQPYGGNLSQVLRAGKALGGTSTINGMAYTRAEDVQIDAWETIGNTGWTWKNLFPYYRKSENFTVPTKSQTSLGASYEAGAHGHEGPLDVAFTQIESNNLTTYLNRTFQGMGLPWTEDVNGGKMRGFNLYPSTVNLEEYVREDAARAYYWPYKSRPNLHVLLNTFANRIVWDGEAHDGHITASGVEITSRNGTVRVINAEKEVIVSAGALKSPAILELSGIGNPSVLDKHNIPVKVNLPTVGENLQDQVNSHMDASGNTSISGTKAVSYPDVYDVFGDEAESVAKQIRANLKQYAADTAKANGNIMKAADLERLFEVQYDLIFKGRVPIAEVLNYPGSATSVFAEFWALLPFARGSVHIGSSNPAEFPVINPNYFMLDWDAKSYVAVAKYIRRSFESYPLSSIVKESTPGYDVIPRNASEQSWKEWVFDKNYRSNFHPVGTAAMMPREIGGVVDERLNVYGTTNVRVVDASVLPFQVCGHLVSTLYAVAERAADLIKADAGRR
modifications: FAD cofactor; SIGNAL (1)..(19)
B3: H341W: modified GLD: SEQ ID NO: 1 with substitution H341W (protein, listed as Aspergillus terreus)
chain: MLGKLSFLSALSLAVAAPLSNSTSAKYDYIVIGGGTSGLAVANRLSEDPNVNVLILEAGGSVWNNPNVTNVDGYGLAFGSDIDWQYQSVNQPYGGNLSQVLRAGKALGGTSTINGMAYTRAEDVQIDAWETIGNTGWTWKNLFPYYRKSENFTVPTKSQTSLGASYEAGAHGHEGPLDVAFTQIESNNLTTYLNRTFQGMGLPWTEDVNGGKMRGFNLYPSTVNLEEYVREDAARAYYWPYKSRPNLHVLLNTFANRIVWDGEAHDGHITASGVEITSRNGTVRVINAEKEVIVSAGALKSPAILELSGIGNPSVLDKHNIPVKVNLPTVGENLQDQVNSWMDASGNTSISGTKAVSYPDVYDVFGDEAESVAKQIRANLKQYAADTAKANGNIMKAADLERLFEVQYDLIFKGRVPIAEVLNYPGSATSVFAEFWALLPFARGSVHIGSSNPAEFPVINPNYFMLDWDAKSYVAVAKYIRRSFESYPLSSIVKESTPGYDVIPRNASEQSWKEWVFDKNYRSNFHPVGTAAMMPREIGGVVDERLNVYGTTNVRVVDASVLPFQVCGHLVSTLYAVAERAADLIKADAGRR
modifications: SIGNAL (1)..(19)
B4: G426D: modified GLD: SEQ ID NO: 1 with substitution G426D (protein, listed as Aspergillus terreus)
chain: MLGKLSFLSALSLAVAAPLSNSTSAKYDYIVIGGGTSGLAVANRLSEDPNVNVLILEAGGSVWNNPNVTNVDGYGLAFGSDIDWQYQSVNQPYGGNLSQVLRAGKALGGTSTINGMAYTRAEDVQIDAWETIGNTGWTWKNLFPYYRKSENFTVPTKSQTSLGASYEAGAHGHEGPLDVAFTQIESNNLTTYLNRTFQGMGLPWTEDVNGGKMRGFNLYPSTVNLEEYVREDAARAYYWPYKSRPNLHVLLNTFANRIVWDGEAHDGHITASGVEITSRNGTVRVINAEKEVIVSAGALKSPAILELSGIGNPSVLDKHNIPVKVNLPTVGENLQDQVNSHMDASGNTSISGTKAVSYPDVYDVFGDEAESVAKQIRANLKQYAADTAKANGNIMKAADLERLFEVQYDLIFKGRVPIAEVLNYPDSATSVFAEFWALLPFARGSVHIGSSNPAEFPVINPNYFMLDWDAKSYVAVAKYIRRSFESYPLSSIVKESTPGYDVIPRNASEQSWKEWVFDKNYRSNFHPVGTAAMMPREIGGVVDERLNVYGTTNVRVVDASVLPFQVCGHLVSTLYAVAERAADLIKADAGRR
modifications: SIGNAL (1)..(19)

What was measured:
Type in all cases: biochemical
[1] = Relative enzymatic activity of GLD (DCIP/1-m-PMS, plate reader, yeast culture supernatant) with 1,10-phenanthroline present; conditions: for Relative Activity: random-mutation mutants, sample value with inhibitor at 1 mM / blank value, inhibitor not named in Table 1; for Relative Activity [%] 1,10-Phenanthroline: site-specific mutants, inhibitor final concentration 1 mM
Summary of the method: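 Inhibitor at 1 mM final substitutes for the methanol in the reagent, and the sample rate is expressed as % of the inhibitor-free blank. Rates come from ΔA600/min of DCIP with glucose and 1-m-PMS at pH 7.0, using supernatants of YPD-grown yeast clones (24 h, 30° C.).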

[2] = Relative enzymatic activity of GLD (DCIP/1-m-PMS, plate reader, yeast culture supernatant) with proflavin hydrochloride present; conditions: site-specific mutants, inhibitor final concentration 1 mM
Summary of the method: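 Culture supernatant diluted and mixed with reagent of phosphate buffer pH 7.0, 1.0 M D-glucose, 3 mM DCIP, 3 mM 1-m-PMS and methanol (0.1:1:0.14:0.2:0.06). DCIP absorbance decrease at 600 nm followed; proflavin hydrochloride in methanol replaced methanol at 1 mM final. Activity expressed as % of inhibitor-free blank.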

[3] = Susceptibility of purified enzyme to 1,10-phenanthroline (spectrophotometer); conditions: inhibitor 1 mM
Protocol: (§1) 1.0 mL of 0.1 M potassium phosphate buffer (pH 7.0), 1.0 mL of 1.0 M D-glucose, 0.14 mL of 3 mM 2,6-dichlorophenol indophenol (hereinafter referred to as DCIP), 0.2 mL of 3 mM 1-methoxy-5-methylphenazinium methylsulfate (hereinafter referred to as 1-m-PMS), 0.06 mL of methanol and 0.55 mL of distilled water are added to a 3-mL quartz cell (light path length: 1 cm), and the cell is placed in a spectrophotometer provided with a thermostat cell holder and incubated at 37° C. for 10 minutes. Thereafter, 0.05 mL of an enzyme solution is added to the cell, and then, a change in the absorbance of DCIP at 600 nm (ΔABS/min) is determined. The molar extinction coefficient of DCIP at pH 7.0 is taken as 16.3×10^3 cm^−1 M^−1, and enzymatic activity to reduce 1 μmol of DCIP per minute is substantially equivalent to 1 unit of the enzymatic activity. Therefore, the enzymatic activity is determined from the change in the absorbance according to Equation I. In Example 8, methanol was replaced with the same amount of distilled water.
(§2) In the following examples, a value of the enzymatic activity determined by the spectrometer or plate reader using the above reagent composition is considered as a blank value. On the other hand, a sample value is determined using a methanol solution comprising the inhibitor such as 1,10-phenanthroline or proflavin hydrochloride at a final concentration of 1 mM instead of the methanol. Enzymatic activity (unit/mL)=(−ΔABS/16.3)×3.0/0.05×(Dilution ratio of enzyme) [Equation 1]
(§3) The mutants having the mutation of H341W and F432L, respectively, were inoculated into a shake flask containing 150 mL the YPD medium. After shaking culture at 30° C. and 120 rpm for 48 hours, the culture mixture was centrifuged at 3,000×g for 5 min. and the supernatant was filtered through a membrane filter with 10 μm. […]
(§4) After diluting the purified enzyme to an appropriate concentration, the sample value and blank value were determined in accordance with the method for determination of the enzymatic activity using the spectrophotometer.

[4] = Susceptibility of purified enzyme to proflavin hydrochloride (spectrophotometer); conditions: inhibitor 1 mM
Protocol: as §1, §2, §3, §4

[5] = Susceptibility to 1,10-phenanthroline at a high concentration
Protocol: as §1
The enzymatic activity is determined in the following manner in Examples 3 and 6 wherein a plate reader (Japan Molecular Device Corporation, SpectraMax Plus384) is used. Thus, culture supernatant that had been diluted in advance with an appropriate magnification is added to a 96-well microplate with an amount of 100 μl per well. A reagent for the determination of the enzymatic activity comprising phosphate buffer (pH 7.0), 1.0 M D-glucose, 3 mM DCIP, 3 mM 1-m-PMS and methanol with a volume ratio of 0.1:1:0.14:0.2:0.06 is added to the 96-well microplate with an amount of 100 μl per well, and a change in the absorbance of DCIP at 600 nm (ΔABS/min) is then determined. The enzymatic activity can be calculated by conversion in proportion to a change in the absorbance of an enzyme solution for which the enzymatic activity has already been known by the above-mentioned activity determination procedure using the spectrophotometer.
as §2
The relative activity was determined in the same manner as in Examples 3 and 6 in the co-existence of the inhibitors at a high concentration.

[6] = Susceptibility to proflavin at a high concentration; conditions: final conc. 2 mM
Protocol: as §1, with “The molar extinction coefficient of DCIP at pH 7.0 is taken as 16.3×10^3 cm^−1 M^−1, and enzymatic activity to reduce 1 μmol of DCIP per minute is substantially equivalent to 1 unit of the enzymatic activity.” left out
The enzymatic activity is determined in the following manner in Examples 3 and 6 wherein a plate reader (Japan Molecular Device Corporation, SpectraMax Plus384) is used. […] A reagent for the determination of the enzymatic activity comprising phosphate buffer (pH 7.0), 1.0 M D-glucose, 3 mM DCIP, 3 mM 1-m-PMS and methanol with a volume ratio of 0.1:1:0.14:0.2:0.06 is added to the 96-well microplate with an amount of 100 μl per well, and a change in the absorbance of DCIP at 600 nm (ΔABS/min) is then determined. […]

Row | Molecule | Relative Activity [1] | Relative Activity [%] 1,10-Phenanthroline [1] | Relative Activity [%] Proflavin hydrochloride [2] | Relative Activity [%] 1,10-Phenanthroline [3] | Relative Activity [%] Proflavin hydrochloride [4] | Relative Activity[%] ([5]; final conc. 1 mM) | Relative Activity[%] ([5]; final conc. 5 mM) | Relative Activity[%] ([5]; final conc. 10 mM) | Relative Activity[%] ([5]; final conc. 20 mM) | Relative Activity[%] [6]
1 | B1 | 80.4% | 91.7% | 68.1% | 90.8% | 88.1% | 97.0% | 64.2% | 47.2% | 32.1% | 91.6%
2 | B2 | 25.7% | 30.0% | 35.0% | 41.1% | 50.9% |  |  |  |  | 
3 | B3 |  | 100.3% | 88.4% | 89.5% | 144.3% | 99.4% | 78.1% | 63.2% | 45.8% | 138.2%
4 | B4 |  | 56.5% | 34.2% |  |  |  |  |  |  | 
